Assay results published in the supplement of paper PMC10567573.

B1: ZBED2 (parent)
chain: FHLAPARAGHHPNQYATCRLCGRQ
B2: EHMT1 (parent)
chain: FHKDCASRVNNASYCPHCGEESSK

Variants of: B1
Experiment: protein stability index of a GFP-peptide fusion (GPS, HEK-293T) (PSI 1-6); higher = more stable
Settings: c terminus: a fixed tail appended
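Further: lentivirally expressed fusions sorted by FACS into six bins by GFP to DsRed ratio, PSI derived from sequencing read proportions per bin multiplied by bin number.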

Protein stability index of substitutions, site by site:
F1: E 3.31, H 2.46, C 2.58, A 2.9, G 1.71, D 3.36

Variants of: B2
Experiment: as above
Settings: c terminus: a fixed tail appended

Protein stability index of substitutions, site by site:
E20: A 3.21, D 3.92, R 3.16, W 3.77, G 3.6, T 3.19, P 3.27, N 3.37, V 2.94, F 2.93, H 2.99, S 3.16
S23: L 3.15, H 3.48, E 3.21, N 3.41, I 3.87, T 3.72, Y 3.6, D 3.39, M 3.49, F 3.63, G 3.34, Q 3.89
N11: D 3.64, V 3.12, A 2.91, W 1.89, Y 2.68, F 2.48, C 3.21, L 2.53, K 3.54, H 3.82, G 3.37, E 3.46
G19: W 2.96, T 3.51, Q 3.35, Y 3.91, R 2.84, C 3.59, D 3.9, N 3.5, H 3.36, V 4.11, M 3.55, K 3.65
C18: N 3.67, I 3.04, G 3.63, L 2.76, Q 3.59, P 3.79, R 3.73, F 2.93, Y 3.16, T 3.58, M 2.96, D 4.03, W 2.31, A 3.76, K 3.85, S 3.68
R8: A 3.78, S 3.49, E 2.86, K 3.46, F 2.35, Y 2.63, P 3.37, W 1.91, D 3.43, Q 3.59, C 3.66, M 3.37, H 4.23
E21: T 3.4, K 3.22, L 2.55, M 2.64, A 3.52, P 2.41, H 3, S 2.71, G 3.29, D 3.22, Q 3.12, V 2.32, F 2.93, R 2.92, N 3.17, Y 2.63
K3: W 1.78, L 2.57, Y 2.61, N 2.69, M 2.29, R 2.57, I 2.7, Q 2.27, H 2.9, D 3.47, C 4.57, A 2.58, S 2.01, F 1.92, G 2.73
H17: D 3.84, L 3.05, Q 3.21, M 3.14, N 3.85, I 3.35, T 3.58, C 3.45, R 3.5, V 3.54, F 2.96, G 3.18, S 3.4, Y 2.87
A6: Y 2.26, W 1.96, S 3.52, N 3.41, Q 4.04, T 3.6, C 4.35, M 3.07, P 3.83, R 2.97, D 3.52, F 2.28, E 3.6, G 3.59, V 3.5, H 3.34, I 3.23
C15: V 3.67, W 2.08, R 3.49, L 3.45, F 3.04, D 3.89, M 3.16, E 4.22, I 3.32, H 3.56, N 3.88, A 3.32, P 3.75, Y 2.74
F1: S 4.77, K 4.62, L 4.78, V 4.78, M 4.9, H 5.16, P 4.43, I 4.55, W 4.02, Q 5.09, T 4.43, E 5.17, N 4.87
H2: N 4.18, I 2.08, P 3.37, G 3.6, Y 3.69, R 3.65, W 2.62, K 4.17, E 4.62, T 3, V 1.96, D 4.8, L 3.58, F 3.27
Y14: F 3.36, D 3.77, L 3.82, Q 4, M 3.59, I 3.47, T 3.73, P 3.9, C 3.66, S 3.26, E 4.05, W 2.45
P16: K 3.57, E 3.94, M 3.07, I 3.36, F 2.73, R 2.96, W 1.66, N 3.29, S 3.23, T 3.42, Q 3.61, A 3.24, V 3.89, L 3.35, Y 2.58
V9: T 3.73, D 3.94, F 2.92, M 3.37, L 3.73, N 3.39, Q 3.74, E 3.87, R 3.63, K 3.66, H 4.71, I 3.65, P 3.84, Y 3.21, C 4.31, G 4.14
K24: M 3.26, A 2.92, Y 2.9, G 3.5, N 2.99, F 3.07, C 3.7, D 3.58, L 3.43, H 3.45, T 3.25
N10: S 3.24, A 3.6, G 3.74, Y 1.95, R 2.99, P 3.33, M 2.98, C 3.75, F 2.82, I 3.08, K 3.1, W 2.37
C5: A 2.53, S 2.56, M 2.46, F 2.72, P 1.77, T 2.25, V 2.59, H 2.3, Q 2.25, N 2.61, R 2.36, Y 2.25, G 2.52, D 3.19, W 2.55
A12: G 4.34, C 3.35, Y 2.85, L 3.06, S 3.29, I 2.95, N 3.37, F 2.48, Q 3.96, H 3.22, W 2.54, E 3.81, T 3.31, K 3.36
S13: H 3.66, E 3.77, T 3.72, W 2.15, Y 2.34, N 3.6, V 2.76, D 3.81, F 2.34, A 3.36, R 3.16, P 3.12
S7: V 3.72, I 3.54, T 3.28, K 4.04, M 3.54, C 4.27, E 3.54, F 2.16, D 3.23, A 3.71, N 2.83, R 3.97, W 2.76
S22: D 3.35, R 3.05, Q 3.55, F 3.2, E 4.01, I 3.68, V 3.38, G 2.81, K 3.77, L 3.22, A 3.46, M 3.31, H 4.09, T 3.54
D4: W 1.96, Y 2.02, T 2.47, G 2.56, A 3.16, K 2.59, V 2.41, N 3.3, E 3.55, S 3.12, C 4.12, Q 2.73, P 1.88, I 2.56
